Assay results taken from patent publication US20060166191A1.

Target: wild-type Gag expressed from the full-length proviral construct pNL4-3 (HIV-1) (UniProt P12493)
Assay: cell-based or functional assay

## AP3D-5′, AP3 δ subunit residues 1-742 (from UniProt O14617 1-742)
  cells with particle budding among 100 consecutive 293T cells (thin-section electron microscopy), NL4-3 with AP3D-5′: 0 cells of 100
